The chains are these.
B1: POU domain, class 3, transcription factor 2, residues 262 to 338; numbered along this chain, P20265 (parent)
chain: EDTPTSDDLEQFAKQFKQRRIKLGFTQADVGLALGTLYGNVFSQTTICRFEALQLSFKNMCKLKPLLNKWLEEADSS

± gives the uncertainty stated by the source.

The data set covers variants of B1. Put plainly: abundance fitness (aPCA) (normalised: wild type 0, dead -1); higher = more abundant; growth selection in yeast, the domain comes from the species named. Conditions: Homo sapiens.
Consider EDTPTSDDLEQFAKQFKQRRIKLGFTQADVGLALGTLYGNVFSQTTICRAEALQLSFKNMCKLKPLLNKWLEEADSS, for which the abundance fitness was -0.763 ± 0.065.

As for EDTPTSDDLEQFAKQFKQRRIKLGFTQADVGLALGTLYGNVFSQTTICRQEALQLSFKNMCKLKPLLNKWLEEADSS, the abundance fitness was -0.624 ± 0.079.

On to EDTPTSDDLEQFAKQFKQRRIKLGFTQADVGLALGTLYGNVFSQTTICRIEALQLSFKNMCKLKPLLNKWLEEADSS, for which the abundance fitness is -0.675 ± 0.12.

For the variant EDTPTSDDLEQFAKQFKQRRIKLGFTQADVGLALGTLYGNVFSQTTICRSEALQLSFKNMCKLKPLLNKWLEEADSS, the abundance fitness was -0.821 ± 0.075.

As for EDTPTSDDLEQFAKQFKQRRIKLGFTQADVGLALGTLYGNVFSQTTICRREALQLSFKNMCKLKPLLNKWLEEADSS, the abundance fitness is -0.886 ± 0.055.

With EDTPTSDDLEQFAKQFKQRRIKLGFTQADVGLALGTLYGNVFSQTTICRMEALQLSFKNMCKLKPLLNKWLEEADSS, the abundance fitness is -0.485 ± 0.063.

For the variant EDTPTSDDLEQFAKQFKQRRIKLGFTQADVGLALGTLYGNVFSQTTICRWEALQLSFKNMCKLKPLLNKWLEEADSS, the abundance fitness was -0.749 ± 0.067.

EDTPTSDDLEQFAKQFKQRRIKLGFTQADVGLALGTLYGNVFSQTTICRPEALQLSFKNMCKLKPLLNKWLEEADSS: the abundance fitness is -0.756 ± 0.085.

With EDTPTSDDLEQFAKQFKQRRIKLGFTQADVGLALGTLYGNVFSQTTICRKEALQLSFKNMCKLKPLLNKWLEEADSS, the abundance fitness is -0.711 ± 0.1.

As for EDTPTSDDLEQFAKQFKQRRIKLGFTQADVGLALGTLYGNVFSQTTICREEALQLSFKNMCKLKPLLNKWLEEADSS, the abundance fitness is -0.85 ± 0.091.

Consider EDTPTSDDLEQFAKQFKQRRIKLGFTQADVGLALGTLYGNVFSQTTICRVEALQLSFKNMCKLKPLLNKWLEEADSS, for which the abundance fitness was -0.682 ± 0.049.

For EDTPTSDDLEQFAKQFKQRRIKLGFTQADVGLALGTLYGNVFSQTTICRGEALQLSFKNMCKLKPLLNKWLEEADSS, the abundance fitness was -0.839 ± 0.057.

As for EDTPTSDDLEQFAKQFKQRRIKLGFTQADVGLALGTLYGNVFSQTTICRYEALQLSFKNMCKLKPLLNKWLEEADSS, the abundance fitness was -0.412 ± 0.1.

EDTPTSDDLEQFAKQFKQRRIKLGFTQADVGLALGTLYGNVFSQTTICRLEALQLSFKNMCKLKPLLNKWLEEADSS: the abundance fitness was -0.487 ± 0.039.

Turning to EDTPTSDDLEQFAKQFKQRRIKLGFTQADVGLALGTLYGNVFSQTTICRTEALQLSFKNMCKLKPLLNKWLEEADSS, the abundance fitness was -0.682 ± 0.076.

In the case of EDTPTSDDLEQFAKQFKQRRIKLGFTQADVGLALGTLYGNVFSQTWICRFEALQLSFKNMCKLKPLLNKWLEEADSS, the abundance fitness was -0.307 ± 0.039.

Turning to EDTPTSDDLEQFAKQFKQRRIKLGFTQADVGLALGTLYGNVFSQTYICRFEALQLSFKNMCKLKPLLNKWLEEADSS, the abundance fitness was -0.547 ± 0.14.

Turning to EDTPTSDDLEQFAKQFKQRRIKLGFTQADVGLALGTLYGNVFSQTVICRFEALQLSFKNMCKLKPLLNKWLEEADSS, the abundance fitness is -0.115 ± 0.031.

For EDTPTSDDLEQFAKQFKQRRIKLGFTQADVGLALGTLYGNVFSQTTACRFEALQLSFKNMCKLKPLLNKWLEEADSS, the abundance fitness is -0.751 ± 0.068.

Turning to EDTPTSDDLEQFAKQFKQRRIKLGFTQADVGLALGTLYGNVFSQTTFCRFEALQLSFKNMCKLKPLLNKWLEEADSS, the abundance fitness was -0.787 ± 0.2.

As for EDTPTSDDLEQFAKQFKQRRIKLGFTQADVGLALGTLYGNVFSQTTECRFEALQLSFKNMCKLKPLLNKWLEEADSS, the abundance fitness was -0.772 ± 0.074.

In the case of EDTPTSDDLEQFAKQFKQRRIKLGFTQADVGLALGTLYGNVFSQTTDCRFEALQLSFKNMCKLKPLLNKWLEEADSS, the abundance fitness is -0.786 ± 0.11.

Turning to EDTPTSDDLEQFAKQFKQRRIKLGFTQADVGLALGTLYGNVFSQTTCCRFEALQLSFKNMCKLKPLLNKWLEEADSS, the abundance fitness was -0.763 ± 0.097.

For the variant EDTPTSDDLEQFAKQFKQRRIKLGFTQADVGLALGTLYGNVFSQTTNCRFEALQLSFKNMCKLKPLLNKWLEEADSS, the abundance fitness is -0.798 ± 0.23.

Turning to EDTPTSDDLEQFAKQFKQRRIKLGFTQADVGLALGTLYGNVFSQTTGCRFEALQLSFKNMCKLKPLLNKWLEEADSS, the abundance fitness is -1 ± 0.06.

Consider EDTPTSDDLEQFAKQFKQRRIKLGFTQADVGLALGTLYGNVFSQTTHCRFEALQLSFKNMCKLKPLLNKWLEEADSS, for which the abundance fitness is -0.65 ± 0.16.

Take EDTPTSDDLEQFAKQFKQRRIKLGFTQADVGLALGTLYGNVFSQTTPCRFEALQLSFKNMCKLKPLLNKWLEEADSS: the abundance fitness is -1.02 ± 0.19.

Turning to EDTPTSDDLEQFAKQFKQRRIKLGFTQADVGLALGTLYGNVFSQTTRCRFEALQLSFKNMCKLKPLLNKWLEEADSS, the abundance fitness was -0.689 ± 0.05.

For the variant EDTPTSDDLEQFAKQFKQRRIKLGFTQADVGLALGTLYGNVFSQTTTCRFEALQLSFKNMCKLKPLLNKWLEEADSS, the abundance fitness was -0.636 ± 0.083.

For EDTPTSDDLEQFAKQFKQRRIKLGFTQADVGLALGTLYGNVFSQTTQCRFEALQLSFKNMCKLKPLLNKWLEEADSS, the abundance fitness is -0.723 ± 0.094.

Consider EDTPTSDDLEQFAKQFKQRRIKLGFTQADVGLALGTLYGNVFSQTTVCRFEALQLSFKNMCKLKPLLNKWLEEADSS, for which the abundance fitness was -0.121 ± 0.027.

For the variant EDTPTSDDLEQFAKQFKQRRIKLGFTQADVGLALGTLYGNVFSQTTYCRFEALQLSFKNMCKLKPLLNKWLEEADSS, the abundance fitness was -0.339 ± 0.13.

EDTPTSDDLEQFAKQFKQRRIKLGFTQADVGLALGTLYGNVFSQTTLCRFEALQLSFKNMCKLKPLLNKWLEEADSS: the abundance fitness was -0.267 ± 0.039.

As to EDTPTSDDLEQFAKQFKQRRIKLGFTQADVGLALGTLYGNVFSQTTKCRFEALQLSFKNMCKLKPLLNKWLEEADSS, the abundance fitness was -0.701 ± 0.085.

Take EDTPTSDDLEQFAKQFKQRRIKLGFTQADVGLALGTLYGNVFSQTTMCRFEALQLSFKNMCKLKPLLNKWLEEADSS: the abundance fitness was -0.58 ± 0.065.
